Assay results published in publication PMC4103834, “Structure-Based Rational Design to Enhance the Solubility and Thermostability of a Bacterial Laccase Lac15” (PLoS ONE, 2014).

System: COc1cc(C=NN=Cc2cc(OC)c(O)c(OC)c2)cc(OC)c1O
Test: purified protein
Details: standard assay: 50 mM Na2HPO4-KH2PO4 pH 7.5, 100 µM CuSO4, 45 °C, conditions of the Km series not given separately

| Substance | Km [µmol/L] | kcat [s⁻¹] |
| --- | --- | --- |
| Lac15 (uncultured bacterium; DEL323-332) | 6.34 ± 0.19 | 1.69 ± 0.13 |
| Lac15-His6 (uncultured bacterium) | 4.53 ± 0.21 | 1.35 ± 0.09 |
| Lac15 (uncultured bacterium) | 3.74 ± 0.37 | 1.39 ± 0.11 |
